Measurements from patent US20210252150A1.

Experiments:
[1] = target: HA of A/Texas/36/1991 (H1N1) (influenza A virus (H1N1))
[2] = target: HA of A/Solomon Islands/03/2006 (H1N1) (influenza A virus (H1N1))
[3] = target: HA of A/Texas/50/2012 (H3N2) (influenza A virus (H3N2))

Substance | EC50 [1] [µg/mL] | EC50 fold over wild-type rFluA-20 [2] [fold] | EC50 [2] [µg/mL] | EC50 [3] [µg/mL]
rFluA-20 light chain mutant Q55A (antibody) | 0.23 | > 100 |  | 
rFluA-20 light chain mutant N53A (antibody) | 0.04 |  | 0.05 | 0.09
rFluA-20 heavy chain mutant C101A (antibody) | 0.15 |  | 0.2 | 0.39
